Measurements from PMC9958131 (Nature Communications, 2023).
Substitutions are numbered along the chain they refer to.

B1: C9JU00 (protein)
chain: MIDAATLKSRKMLEEIMKYEASILTHDSSIRYLQEIYNSNNQKIVNLKEKVAQLEAQCQEPCKDTVQIHDITGKDCQDIANKGAKQSGLYFIKPLKANQQFLVYCEIDGSGNGWTVFQKRLDG
B2: Q9Y2J8 (protein)
chain: MLRERTVRLQYGSRVEAVYVLGTYLWTDVYSAAPAGAQTFSLKHSEHVWVEVVRDGEAEEVATNGKQRWLLSPSTTLRVTMSQASTEASSDKVTVNYYDEEGSIPIDQAGLFLTAIEISLDVDADRDGVVEKNNPKKASWTWGPEGQGAILLVNCDRETPWLPKEDCRDEKVYSKEDLKDMSQMILRTKGPDRLPAGYEIVLYISMSDSDKVGVFYVENPFFGQRYIHILGRRKLYHVVKYTGGSAELLFFVEGLCFPDEGFSGLVSIHVSLLEYMAQDIPLTPIFTDTVIFRIAPWIMTPNILPPVSVFVCCMKDNYLFLKEVKNLVEKTNCELKVCFQYLNRGDRWIQDEIEFGYIEAPHKGFPVVLDSPRDGNLKDFPVKELLGPDFGYVTREPLFESVTSLDSFGNLEVSPPVTVNGKTYPLGRILIGSSFPLSGGRRMTKVVRDFLKAQQVQAPVELYSDWLTVGHVDEFMSFVPIPGTKKFLLLMASTSACYKL
B3: P02538 (protein)
chain: MASTSTTIRSHSSSRRGFSANSARLPGVSRSGFSSVSVSRSRGSGGLGGACGGAGFGSRSLYGLGGSKRISIGGGSCAISGGYGSRAGGSYGFGGAGSGFGFGGGAGIGFGLGGGAGLAGGFGGPGFPVCPPGGIQEVTVNQSLLTPLNLQIDPTIQRVRAEEREQIKTLNNKFASFIDKVRFLEQQNKVLETKWTLLQEQGTKTVRQNLEPLFEQYINNLRRQLDSIVGERGRLDSELRGMQDLVEDFKNKYEDEINKRTAAENEFVTLKKDVDAAYMNKVELQAKADTLTDEINFLRALYDAELSQMQTHISDTSVVLSMDNNRNLDLDSIIAEVKAQYEEIAQRSRAEAESWYQTKYEELQVTAGRHGDDLRNTKQEIAEINRMIQRLRSEIDHVKKQCANLQAAIADAEQRGEMALKDAKNKLEGLEDALQKAKQDLARLLKEYQELMNVKLALDVEIATYRKLLEGEECRLNGEGVGQVNISVVQSTVSSGYGGA
B4: P02533 (protein)
chain: MTTCSRQFTSSSSMKGSCGIGGGIGGGSSRISSVLAGGSCRAPSTYGGGLSVSSSRFSSGGACGLGGGYGGGFSSSSSSFGSGFGGGYGGGLGAGLGGGFGGGFAGGDGLLVGSEKVTMQNLNDRLASYLDKVRALEEANADLEVKIRDWYQRQRPAEIKDYSPYFKTIEDLRNKILTATVDNANVLLQIDNARLAADDFRTKYETELNLRMSVEADINGLRRVLDELTLARADLEMQIESLKEELAYLKKNHEEEMNALRGQVGGDVNVEMDAAPGVDLSRILNEMRDQYEKMAEKNRKDAEEWFFTKTEELNREVATNSELVQSGKSEISELRRTMQNLEIELQSQLSMKASLENSLEETKGRYCMQLAQIQEMIGSVEEQLAQLRCEMEQQNQEYKILLDVKTRLEQEIATYRRLLEGEDAHLSSSQFSSGSQSSRDVTSSSRQIRTKVMDVHDGKVVSTHEQVLRTKN
B5: P13647 (protein, UniProt P13647 1-590, looked up)
chain: MSRQSSVSFRSGGSRSFSTASAITPSVSRTSFTSVSRSGGGGGGGFGRVSLAGACGVGGYGSRSLYNLGGSKRISISTSGGSFRNRFGAGAGGGYGFGGGAGSGFGFGGGAGGGFGLGGGAGFGGGFGGPGFPVCPPGGIQEVTVNQSLLTPLNLQIDPSIQRVRTEEREQIKTLNNKFASFIDKVRFLEQQNKVLDTKWTLLQEQGTKTVRQNLEPLFEQYINNLRRQLDSIVGERGRLDSELRNMQDLVEDFKNKYEDEINKRTTAENEFVMLKKDVDAAYMNKVELEAKVDALMDEINFMKMFFDAELSQMQTHVSDTSVVLSMDNNRNLDLDSIIAEVKAQYEEIANRSRTEAESWYQTKYEELQQTAGRHGDDLRNTKHEISEMNRMIQRLRAEIDNVKKQCANLQNAIADAEQRGELALKDARNKLAELEEALQKAKQDMARLLREYQELMNTKLALDVEIATYRKLLEGEECRLSGEGVGPVNISVVTSSVSSGYGSGSGYGGGLGGGLGGGLGGGLAGGSSGSYYSSSSGGVGLGGGLSVGGSGFSASSGRGLGVGFGSGGGSSSSVKFVSTTSSSRKSFKS
modifications: full-length
B6: E7ESP9 (protein)
chain: MSYTLDSLGNPSAYRRVTETRSSFSRVSGSPSSGFRSQSWSRGSPSTVSSSYKRSMLAPRLAYSSAMLSSAESSLDFSQSSSLLNGGSGPGGDYKLSRSNEKEQLQGLNDRFAGYIEKVHYLEQQNKEIEAEIQALRQKQASHAQLGDAYDQEIRELRATLEMVNHEKAQVQLDSDHLEEDIHRLKERFEEEARLRDDTEAAIRALRKDIEEASLVKVELDKKVQSLQDEVAFLRSNHEEEVADLLAQIQASHITVERKDYLKTDISTALKEIRSQLESHSDQNMHQAEEWFKCRYAKLTEAAEQNKEAIRSAKEEIAEYRRQLQSKSIELESVRGTKESLERQLSDIEERHNHDLSSYQDTIQQLENELRGTKWEMARHLREYQDLLNVKMALDIEIAAYRKLLEGEETRFSTFAGSITGPLYTHRPPITISSKIQKPKVEAPKLKVQHKFVEEIIEETKVEDEKSEMEEALTAITEELAVSMKEEKKEAAEEKEEEPE
B7: P01023 (protein)
chain: MGKNKLLHPSLVLLLLVLLPTDASVSGKPQYMVLVPSLLHTETTEKGCVLLSYLNETVTVSASLESVRGNRSLFTDLEAENDVLHCVAFAVPKSSSNEEVMFLTVQVKGPTQEFKKRTTVMVKNEDSLVFVQTDKSIYKPGQTVKFRVVSMDENFHPLNELIPLVYIQDPKGNRIAQWQSFQLEGGLKQFSFPLSSEPFQGSYKVVVQKKSGGRTEHPFTVEEFVLPKFEVQVTVPKIITILEEEMNVSVCGLYTYGKPVPGHVTVSICRKYSDASDCHGEDSQAFCEKFSGQLNSHGCFYQQVKTKVFQLKRKEYEMKLHTEAQIQEEGTVVELTGRQSSEITRTITKLSFVKVDSHFRQGIPFFGQVRLVDGKGVPIPNKVIFIRGNEANYYSNATTDEHGLVQFSINTTNVMGTSLTVRVNYKDRSPCYGYQWVSEEHEEAHHTAYLVFSPSKSFVHLEPMSHELPCGHTQTVQAHYILNGGTLLGLKKLSFYYLIM
B8: K7ERE3 (protein)
chain: MSLRLQSSSASYGGGFGGGSCQLGGGRGVSTCSTRFVSGGSAGGYGGGVSCGFGGGAGSGFGGGYGGGLGGGYGGGLGGGFGGGFAGGFVDFGACDGGLLTGNEKITMQNLNDRLASYLEKVRALEEANADLEVKIRDWHLKQSPASPERDYSPYYKTIEELRDKILTATIENNRVILEIDNARLAADDFRLKYENELALRQSVEADINGLRRVLDELTLSKTDLEMQIESLNEELAYMKKNHEEEMKEFSNQVVGQVNVEMDATPGIDLTRVLAEMREQYEAMAERNRRDAEEWFHTKSAELNKEVSTNTAMIQTSKTEITELRRTLQGLEIELQSQLSMKAGLENTVAETECRYALQLQQIQGLISSIEAQLSELRSEMECQNQEYKMLLDIKTRLEQEIATYRSLLEGQDAK
B9: F5GXS0 (protein)
chain: MRLLWGLIWASSFFTLSLQKPRLLLFSPSVVHLGVPLSVGVQLQDVPRGQVVKGSVFLRNPSRNNVPCSPKVDFTLSSERDFALLSLQVPLKDAKSCGLHQLLRGPEVQLVAHSPWLKDSLSRTTNIQGINLLFSSRRGHLFLQTDQPIYNPGQRVRYRVFALDQKMRPSTDTITVMVENSHGLRVRKKEVYMPSSIFQDDFVIPDISEPGTWKISARFSDGLESNSSTQFEVKKYVLPNFEVKITPGKPYILTVPGHLDEMQLDIQARYIYGKPVQGVAYVRFGLLDEDGKKTFFRGLESQTKLVNGQSHISLSKAEFQDALEKLNMGITDLQGLRLYVAAAIIESPGGEMEEAELTSWYFVSSPFSLDLSKTKRHLVPGAPFLLQALVREMSGSPASGIPVKVSATVSSPGSVPEVQDIQQNTDGSGQVSIPIIIPQTISELQLSVSAGSPHPAIARLTVAAPPSGGPGFLSIERPDSRPPRVGDTLNLNLRAVGSGA
B10: A0A140TA32 (protein)
chain: B9 chain with S347Y
B11: P00488 (protein)
chain: MSETSRTAFGGRRAVPPNNSNAAEDDLPTVELQGVVPRGVNLQEFLNVTSVHLFKERWDTNKVDHHTDKYENNKLIVRRGQSFYVQIDFSRPYDPRRDLFRVEYVIGRYPQENKGTYIPVPIVSELQSGKWGAKIVMREDRSVRLSIQSSPKCIVGKFRMYVAVWTPYGVLRTSRNPETDTYILFNPWCEDDAVYLDNEKEREEYVLNDIGVIFYGEVNDIKTRSWSYGQFEDGILDTCLYVMDRAQMDLSGRGNPIKVSRVGSAMVNAKDDEGVLVGSWDNIYAYGVPPSAWTGSVDILLEYRSSENPVRYGQCWVFAGVFNTFLRCLGIPARIVTNYFSAHDNDANLQMDIFLEEDGNVNSKLTKDSVWNYHCWNEAWMTRPDLPVGFGGWQAVDSTPQENSDGMYRCGPASVQAIKHGHVCFQFDAPFVFAEVNSDLIYITAKKDGTHVVENVDATHIGKLIVTKQIGGDGMMDITDTYKFQEGQEEERLALETALM
B12: Fibrinogen b: β chain of human fibrinogen, RA autoantigen; native or citrullinated by PAD2 or PAD4 (protein)
chain: MKRMVSWSFHKLKTMKHLLLLLLCVFLVKSQGVNDNEEGFFSARGHRPLDKKREEAPSLRPAPPPISGGGYRARPAKAAATQKKVERKAPDAGGCLHADPDLGVLCPTGCQLQEALLQQERPIRNSVDELNNNVEAVSQTSSSSFQYMYLLKDLWQKRQKQVKDNENVVNEYSSELEKHQLYIDETVNSNIPTNLRVLRSILENLRSKIQKLESDVSAQMEYCRTPCTVSCNIPVVSGKECEEIIRKGGETSEMYLIQPDSSVKPYRVYCDMNTENGGWTVIQNRQDGSVDFGRKWDPYKQGFGNVATNTDGKNYCGLPGEYWLGNDKISQLTRMGPTELLIEMEDWKGDKVKAHYGGFTVQNEANKYQISVNKYRGTAGNALMDGASQLMGENRTMTIHNGMFFSTYDRDNDGWLTSDPRKQCSKEDGGGWWYNRCHAANPNGRYYWGGQYTWDMAKHGTDDGVVWMNWKGSWYSMRKMSMKIRPFFPQQ

Tested on: PAD2 and PAD4
Assay: Citrullination site mapping of fibrinogen and vimentin by trypsin digestion and mass spectrometry (protein-level sheet, one search over native, PAD2-cit and PAD4-cit samples)
Type: biochemical, human
Settings: modified residues found per protein; Deamidated [R..] = deamidated (citrullinated) arginine positions; trypsin digest, Sequest HT; not split by sample (native, PAD2-citrullinated, PAD4-citrullinated fibrinogen and vimentin)
Description: Description: Raw mass spectrometry data for proteolytic mapping of fibrinogen, vimentin, and hnRNP A2/B1 by cathepsins B, S, and H (sheets 1-6); citrullination site mapping of fibrinogen and vimentin by trypsin digestion (sheets 7-8); and the natural antigen processing assay with native, PAD2-citrullinated (PAD2-cit), and PAD4-citrullinated (PAD4-cit) fibrinogen (sheets 9-11).

**Q.** With B1 as the molecule, how does the Modifications read?
**A.** The Modifications was “Deamidated [R31]”.

**Q.** How did the Modifications turn out when B2 was run?
**A.** The Modifications was “Deamidated [R5; R8; R54; R68; R78; R157; R187; R193; R225; R232; R344; R347; R373; R428; R441; R442; R546; R552; R580; R582; R652; R653]”.

**Q.** For B3, which Modifications is on record?
**A.** Its Modifications is “Deamidated [R182; R222; R326]”.

**Q.** B4 was tested. Which Modifications did it give?
**A.** Its Modifications is “Deamidated [R125; R194; R282; R336; R439]; Met-loss+Acetyl [N-Term]”.

**Q.** For B5, which Modifications is on record?
**A.** Its Modifications is “Deamidated [R37; R73; R187; R227]”.

**Q.** Which Modifications does the source give for B6 here?
**A.** The Modifications was “Deamidated [R382]”.

**Q.** With B7 as the molecule, how does the Modifications read?
**A.** The Modifications was “Deamidated [R645; R704; R715; R719; R1401; R1407]”.

**Q.** B8 was tested. Which Modifications did it give?
**A.** Its Modifications is “Deamidated [R27; R212]”.

**Q.** For B9, which Modifications is on record?
**A.** The Modifications was “Deamidated [R123; R1126]”.

**Q.** How did the Modifications turn out when B10 was run?
**A.** The Modifications was “Deamidated [R123]”.

**Q.** With B11 as the molecule, how does the Modifications read?
**A.** Its Modifications is “Deamidated [R6; R202; R675; R697]; Met-loss+Acetyl [N-Term]”.

**Q.** With B12 as the molecule, how does the Modifications read?
**A.** Its Modifications is “Deamidated [R53; R60; R72; R74; R158; R196; R199; R224; R246; R267; R285; R334; R376; R395; R410; R421; R436; R445; R478]”.
